Substrate in this data set: O=C(O)[C@@H](CO)OP(=O)(O)O
The data set can be described thus: purified protein. As to conditions: 25 °C, pH 6.5, 50 mM Bis-Tris propane, 5 mM MgCl2, crystal structure with 2-PGA in active site, open conformation. The format is biochemical, Chloroflexus aurantiacus.

B1: EnoCa (enolase-1 from Chloroflexus aurantiacus) (Chloroflexus aurantiacus J-10-fl) (protein)
chain: MSTLIEAIVAREVLDSRGNPTIEVDVRLESGDVGRAIVPSGASTGAHEALELRDGDKSRYNGKGVLKAVQAVNEDIAEALIGFDAADQIALDQELIALDGTPNKSKLGANAILGVSLAAAKAAAAAFGLPLYRYLGGVYAHVLPVPMMNIMNGGQHATNSTDFQEFMIMPVGAESFREGLRWGAEIYHMLKKVIHDRGFSTTVGDEGGFAPSLPTNDAPLQLIMEAIEKAGYRPGEQIVIALDPATTEIFEDGKYHLKREGRSLSSAEMVDYWVDLVNRYPIISLEDGLAEDDWEGWALLRAKLGDRVQLVGDDFLVTNVQRLQRAIEAKAANSILIKLNQIGSLTETLSAIQLAQRSGWTAVVSHRSGESEDVTIADLVVATNAGQIKTGAPARTDRIAKYNQLLRIEEELGSAARYAGRSAFKV
notes: native protein purified from C. aurantiacus cells, untagged; homodimer, subunit ~46 kDa, total ~92-96 kDa
One may read the Km as the substrate concentration at which the rate is half of its maximum. For the protein B1, the Km turned out to be 160 ± 10 µM.

The values are drawn from publication PMC4450660, “Biochemical and Structural Characterization of Enolase from Chloroflexus aurantiacus: Evidence for a Thermophilic Origin” (Frontiers in Bioengineering and Biotechnology, 2015).
